From article PMC5832153

Target: FliC-aGFP_ENH_V2 (Salmonella) (UniProt P06179)
Experiment: ITC; sfGFP (0.065 mM) injected in 10 μl portions into FliC-aGFP_ENH in the cell; 25 °C; 20 mM Tris-HCl, 150 mM NaCl, pH 8.5; one-binding-site model

UniProt P06179, sequence (P06179 whole entry): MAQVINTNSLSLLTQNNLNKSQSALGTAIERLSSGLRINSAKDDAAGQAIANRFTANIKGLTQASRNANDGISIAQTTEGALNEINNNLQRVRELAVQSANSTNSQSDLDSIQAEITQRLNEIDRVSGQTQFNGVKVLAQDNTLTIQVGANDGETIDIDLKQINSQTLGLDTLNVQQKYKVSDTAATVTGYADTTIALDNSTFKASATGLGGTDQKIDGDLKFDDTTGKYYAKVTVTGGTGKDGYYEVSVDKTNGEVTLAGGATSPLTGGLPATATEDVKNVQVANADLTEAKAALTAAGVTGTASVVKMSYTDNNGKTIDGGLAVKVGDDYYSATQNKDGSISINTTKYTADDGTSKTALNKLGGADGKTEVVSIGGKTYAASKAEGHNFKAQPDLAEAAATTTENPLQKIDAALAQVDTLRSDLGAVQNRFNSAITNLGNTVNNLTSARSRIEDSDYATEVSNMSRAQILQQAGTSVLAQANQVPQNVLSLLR

## C-terminally His-tagged superfolder GFP (from UniProt P42212 1-238) (natural protein)
  Kd: 1.1 nM
  dH: -9.3 kcal/mol
  stoichiometry N: 0.86
